According to PMC3568928 (Journal of molecular biology, 2011):
Where “and” joins values, the source holds several entries; their conditions need not be identical. Identical values can stand only once.

B1: htt^NTQ10K2 (peptide)
peptide: MATLEKLMKAFESLKSFQQQQQQQQQQKK
B2: htt^NTQ37P10K2 (peptide)
peptide: MATLEKLMKAFESLKSWQQQQQQQQQQQQQQQQQQQQQQQQQQQQQQQQQQQQQPPPPPPPPPPKK

Key:
AUC = molecular target: the molecule itself; assay: AUC
htt^NTQ15K2 = molecular target: T1, htt^NTQ15K2 (Phe→Trp replacement at position 17 (stands in the printed letters)); assay: seeded elongation, HPLC sedimentation assay
T1 peptide: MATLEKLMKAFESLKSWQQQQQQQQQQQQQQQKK

htt^NTQ10K2 = molecular target: B1; assay: seeded elongation, HPLC sedimentation assay
htt^NTQ25K2 = molecular target: T2, htt^NTQ25K2 (Phe→Trp replacement at position 17 (stands in the printed letters)); assay: seeded elongation, HPLC sedimentation assay
T2 peptide: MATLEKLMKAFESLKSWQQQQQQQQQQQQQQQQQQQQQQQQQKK

| Binder | stoichiometry N (AUC) | pseudo-first-order rate constant of seeded elongation (htt^NTQ15K2) [h⁻¹] | pseudo-first-order rate constant of seeded elongation (htt^NTQ10K2) [h⁻¹] | pseudo-first-order rate constant of seeded elongation (htt^NTQ25K2) [h⁻¹] |
| --- | --- | --- | --- | --- |
| B1 | ~4 and ~8 and ~12 | – | – | – |
| B2 | – | 0.236 | 0.249 | 0.316 |
